Results reported in paper PMC6370846.

Experiments:
[1] = dual-color fluorescence cross-correlation spectroscopy (FCCS); self-aggregation: Cy5-labelled and Oregon green 488-labelled copies of the same construct mixed in equal volumes (125 µL each) at 536 µM monomer-equivalent, incubated at 310 K with shaking at 250 rpm for up to 24 h; aliquots …; settings: other: dual-color fluorescence cross-correlation spectroscopy (FCCS)
[2] = biological target: α-synuclein tandem octamer (αS-8), C-terminally Cys-tagged, dye-labelled; assay: dual-color fluorescence cross-correlation spectroscopy (FCCS); co-aggregation with swapped fluorophores: Cy5-labelled monomer mixed with Oregon green 488-labelled tandem oligomer, equal volumes (125 µL each) at 536 µM monomer-equivalent, 310 K, shaking at 250 rpm, up to 24 h; aliquots diluted in PBS to ~134 pM and measured at 298 K; single-exponential fits
[3] = biological target: α-synuclein tandem tetramer (αS-4), C-terminally Cys-tagged, dye-labelled; assay: as above
[4] = biological target: α-synuclein tandem dimer (αS-2), C-terminally Cys-tagged, dye-labelled; assay: as above
[5] = biological target: α-synuclein tandem octamer (αS-8), C-terminally Cys-tagged, dye-labelled; assay: dual-color fluorescence cross-correlation spectroscopy (FCCS); co-aggregation: Cy5-labelled tandem oligomer mixed with Oregon green 488-labelled monomer, equal volumes (125 µL each) at 536 µM monomer-equivalent, 310 K, shaking at 250 rpm, up to 24 h; aliquots diluted in PBS to ~134 pM and measured at 298 K; single-exponential fits
[6] = biological target: α-synuclein tandem tetramer (αS-4), C-terminally Cys-tagged, dye-labelled; assay: as above
[7] = biological target: α-synuclein tandem dimer (αS-2), C-terminally Cys-tagged, dye-labelled; assay: as above
[8] = biological target: α-synuclein monomer (αS-1), C-terminally Cys-tagged, dye-labelled; assay: dual-color fluorescence cross-correlation spectroscopy (FCCS); self-aggregation: Cy5-labelled and Oregon green 488-labelled copies of the same construct mixed in equal volumes (125 µL each) at 536 µM monomer-equivalent, incubated at 310 K with shaking at 250 rpm for up to 24 h; aliquots diluted in PBS to ~134 pM and measured at 298 K; fractions nrg/nr and nrg/ng fitted to single-exponential growth
[9] = biological target: α-synuclein tandem dimer (αS-2), C-terminally Cys-tagged, dye-labelled; assay: as above
[10] = biological target: α-synuclein tandem octamer (αS-8), C-terminally Cys-tagged, dye-labelled; assay: as above
[11] = biological target: α-synuclein tandem tetramer (αS-4), C-terminally Cys-tagged, dye-labelled; assay: as above

α-synuclein monomer (αS-1), C-terminally Cys-tagged, dye-labelled
percent incorporated into dual-color aggregates after 24 hr [1]: only ~5% of αS-1 and αS-2
|A| of nrg/ng (extent, percent of Oregon green-labelled species in dual-color aggregates) [1]: 8%
|A| of nrg/nr (extent, percent of Cy5-labelled species in dual-color aggregates) [1]: 6%

α-synuclein monomer (αS-1), C-terminally Cys-tagged, dye-labelled (natural protein)
k of nrg/ng (rate of exponential growth of co-aggregation) [2]: 0.2 h⁻¹
k of nrg/nr (rate of exponential growth of co-aggregation) [2]: 0.05 h⁻¹
|A| of nrg/ng (extent, percent of Oregon green-labelled αS-8 in dual-color co-aggregates) [2]: 11%
|A| of nrg/nr (extent, percent of Cy5-labelled αS-1 in dual-color co-aggregates) [2]: 4%
k of nrg/ng (rate of exponential growth of co-aggregation) [3]: 0.5 h⁻¹
k of nrg/nr (rate of exponential growth of co-aggregation) [3]: 2 h⁻¹
|A| of nrg/ng (extent, percent of Oregon green-labelled αS-4 in dual-color co-aggregates) [3]: 20%
|A| of nrg/nr (extent, percent of Cy5-labelled αS-1 in dual-color co-aggregates) [3]: 1%
k of nrg/ng (rate of exponential growth of co-aggregation) [4]: 0.2 h⁻¹
k of nrg/nr (rate of exponential growth of co-aggregation) [4]: 0.2 h⁻¹
|A| of nrg/ng (extent, percent of Oregon green-labelled αS-2 in dual-color co-aggregates) [4]: 4%
|A| of nrg/nr (extent, percent of Cy5-labelled αS-1 in dual-color co-aggregates) [4]: 5%
k of nrg/ng (rate of exponential growth of co-aggregation) [5]: 0.4 h⁻¹
k of nrg/nr (rate of exponential growth of co-aggregation) [5]: 0.12 h⁻¹
|A| of nrg/ng (extent, percent of Oregon green-labelled αS-1 in dual-color co-aggregates) [5]: 1%
|A| of nrg/nr (extent, percent of Cy5-labelled αS-8 in dual-color co-aggregates) [5]: 40%
k of nrg/ng (rate of exponential growth of co-aggregation) [6]: 0.8 h⁻¹
k of nrg/nr (rate of exponential growth of co-aggregation) [6]: 0.23 h⁻¹
|A| of nrg/ng (extent, percent of Oregon green-labelled αS-1 in dual-color co-aggregates) [6]: 2%
|A| of nrg/nr (extent, percent of Cy5-labelled αS-4 in dual-color co-aggregates) [6]: 11%
k of nrg/ng (rate of exponential growth of co-aggregation) [7]: 0.4 h⁻¹
k of nrg/nr (rate of exponential growth of co-aggregation) [7]: 0.11 h⁻¹
|A| of nrg/ng (extent, percent of Oregon green-labelled αS-1 in dual-color co-aggregates) [7]: 1.7%
|A| of nrg/nr (extent, percent of Cy5-labelled αS-2 in dual-color co-aggregates) [7]: 4%
k of nrg/ng (rate of exponential growth of aggregation) [8]: 0.035 h⁻¹
k of nrg/nr (rate of exponential growth of aggregation) [8]: 0.043 h⁻¹

α-synuclein tandem dimer (αS-2), C-terminally Cys-tagged, dye-labelled
percent incorporated into dual-color aggregates after 24 hr [1]: only ~5% of αS-1 and αS-2
|A| of nrg/ng (extent, percent of Oregon green-labelled species in dual-color aggregates) [1]: 4%
|A| of nrg/nr (extent, percent of Cy5-labelled species in dual-color aggregates) [1]: 5%
k of nrg/ng (rate of exponential growth of aggregation) [9]: 0.2 h⁻¹
k of nrg/nr (rate of exponential growth of aggregation) [9]: 0.23 h⁻¹

α-synuclein tandem octamer (αS-8), C-terminally Cys-tagged, dye-labelled
percent incorporated into dual-color aggregates after 24 hr [1]: ~35% of Cy5-labelled αS-8
|A| of nrg/ng (extent, percent of Oregon green-labelled species in dual-color aggregates) [1]: 26%
|A| of nrg/nr (extent, percent of Cy5-labelled species in dual-color aggregates) [1]: 29%
k of nrg/ng (rate of exponential growth of aggregation) [10]: 0.06 h⁻¹
k of nrg/nr (rate of exponential growth of aggregation) [10]: 0.15 h⁻¹

α-synuclein tandem tetramer (αS-4), C-terminally Cys-tagged, dye-labelled
percent incorporated into dual-color aggregates after 24 hr [1]: ~15% of Cy5-labelled αS-4
|A| of nrg/ng (extent, percent of Oregon green-labelled species in dual-color aggregates) [1]: 17%
|A| of nrg/nr (extent, percent of Cy5-labelled species in dual-color aggregates) [1]: 14%
k of nrg/ng (rate of exponential growth of aggregation) [11]: 0.18 h⁻¹
k of nrg/nr (rate of exponential growth of aggregation) [11]: 0.17 h⁻¹
